Earlier results as cited in paper PMC3210788.

Molecular target: VEGFR-1 (Mus musculus) (UniProt P35969)
UniProt P35969, sequence (P35969 23-1333 S1181G): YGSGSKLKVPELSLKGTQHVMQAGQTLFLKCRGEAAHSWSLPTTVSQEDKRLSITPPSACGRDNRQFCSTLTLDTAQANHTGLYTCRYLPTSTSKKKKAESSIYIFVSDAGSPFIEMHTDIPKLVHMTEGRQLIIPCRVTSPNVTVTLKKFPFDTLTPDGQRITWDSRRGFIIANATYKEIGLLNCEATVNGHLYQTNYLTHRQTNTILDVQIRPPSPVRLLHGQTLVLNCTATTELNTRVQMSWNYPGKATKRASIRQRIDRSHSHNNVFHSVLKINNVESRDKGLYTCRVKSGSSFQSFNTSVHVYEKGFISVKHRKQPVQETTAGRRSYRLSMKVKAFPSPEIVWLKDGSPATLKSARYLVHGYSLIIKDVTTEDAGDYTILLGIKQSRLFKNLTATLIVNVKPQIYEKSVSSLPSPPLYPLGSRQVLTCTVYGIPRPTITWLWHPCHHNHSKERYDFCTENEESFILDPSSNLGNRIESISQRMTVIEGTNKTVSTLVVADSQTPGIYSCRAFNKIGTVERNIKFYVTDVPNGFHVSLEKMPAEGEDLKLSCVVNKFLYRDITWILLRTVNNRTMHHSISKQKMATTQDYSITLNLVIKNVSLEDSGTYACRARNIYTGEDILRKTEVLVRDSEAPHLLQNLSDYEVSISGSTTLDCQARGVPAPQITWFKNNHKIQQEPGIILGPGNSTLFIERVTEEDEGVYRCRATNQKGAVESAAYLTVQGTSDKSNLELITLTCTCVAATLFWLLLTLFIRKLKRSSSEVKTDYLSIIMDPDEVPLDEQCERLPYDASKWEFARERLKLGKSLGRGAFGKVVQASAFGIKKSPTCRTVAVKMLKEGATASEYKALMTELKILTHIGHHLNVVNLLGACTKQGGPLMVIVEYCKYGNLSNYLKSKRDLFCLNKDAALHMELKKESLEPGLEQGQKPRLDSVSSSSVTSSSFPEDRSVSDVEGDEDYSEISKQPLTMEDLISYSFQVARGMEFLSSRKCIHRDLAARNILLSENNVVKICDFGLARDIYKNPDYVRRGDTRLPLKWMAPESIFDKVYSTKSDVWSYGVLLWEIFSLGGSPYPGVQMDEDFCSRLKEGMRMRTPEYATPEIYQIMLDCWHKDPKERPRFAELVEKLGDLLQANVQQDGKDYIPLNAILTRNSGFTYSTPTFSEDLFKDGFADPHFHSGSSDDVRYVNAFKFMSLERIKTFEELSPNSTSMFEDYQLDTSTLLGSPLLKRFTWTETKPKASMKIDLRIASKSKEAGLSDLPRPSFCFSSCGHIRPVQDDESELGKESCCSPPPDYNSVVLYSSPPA

Kd: 0.033 nM
Substance: VEGF (from UniProt Q00731)
